These results are taken from publication PMC4389238, “Non-canonical active site architecture of the radical SAM thiamin pyrimidine synthase” (Nature Communications, 2015).

Series [1] deals with the molecule itself. In words: crystal structure; holo CcThiC with [4Fe-4S] cluster, no substrates; anaerobic, 140 mM HEPES pH 9.2, 7.5% PEG8000; space group C2; 2.93 Å.
Series [2] deals with the molecule itself. In words: crystal structure; AtThiC with [4Fe-4S] cluster co-crystallised anaerobically with combinations of IRN, AIR, SAH, 5'-dAdo, L-Met, Zn or Fe; hanging drop, room temperature; space groups P3(2)21 and C2; 1.25-1.84 Å.

B1: Caulobacter crescentus ThiC, full length (enzyme)
chain: not shown
notes: ThiC (thiamin pyrimidine synthase), Caulobacter crescentus; Holds a [4Fe-4S] cluster; also called CcThiC; holo CcThiC; not shown: His6, N-terminal, cleaved
As for B1, the binding result in series [1] is “binds”.

B2: Arabidopsis thaliana ThiC, ΔN71-AtThiC (residues 1-71 removed) (enzyme)
chain: not shown
notes: ThiC (thiamin pyrimidine synthase, HMP-P synthase), Arabidopsis thaliana; full-length protein has 644 residues; Holds a [4Fe-4S] cluster and an additional metal (Fe or Zn); The final 55 residues are not visible in the electron density.}; also called thiamin pyrimidine synthase; not shown: His6, N-terminal, cleaved
Take B2: the binding result in series [2] is “binds”.
